The source of these data is publication PMC9399289.

In this data set the target is T1, GST-SDE2-FLAG WT (human) (UniProt Q6IQ49).
T1 sequence: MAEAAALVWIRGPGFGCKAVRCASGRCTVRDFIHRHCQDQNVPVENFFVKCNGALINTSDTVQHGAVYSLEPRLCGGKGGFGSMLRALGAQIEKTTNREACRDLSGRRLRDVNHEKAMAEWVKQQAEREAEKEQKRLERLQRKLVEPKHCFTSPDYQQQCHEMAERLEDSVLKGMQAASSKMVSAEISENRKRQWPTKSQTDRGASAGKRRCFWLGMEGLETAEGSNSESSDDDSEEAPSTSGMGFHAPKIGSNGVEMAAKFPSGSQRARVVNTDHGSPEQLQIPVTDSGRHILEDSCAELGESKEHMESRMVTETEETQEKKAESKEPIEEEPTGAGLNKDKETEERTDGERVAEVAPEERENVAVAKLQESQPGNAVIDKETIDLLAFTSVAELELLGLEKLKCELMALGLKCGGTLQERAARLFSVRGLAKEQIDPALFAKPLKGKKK
In words: fluorescence anisotropy. The note with it: EMSA: 10 mM Tris-HCl pH 7.5, 50 mM NaCl, 0.5 mM DTT, 0.05 mM EDTA, 3% glycerol, 0.05 mg/ml BSA (or 50 mM Na/K PO4 pH 6.0, 50 mM NaCl, 5 mM DTT), on ice ….

Consider “GACGCTGCCGAATTCTACCAGTGCCTTGCTAGGACATCTTTGCCCACCTGCAGGTTCACCC (double strand) [60-mer dsDNA (EMSA1/EMSA2)]”, for which the equilibrium dissociation constant (Kd) turned out to be 24.2 µM.
